Data from PMC3348462.

Target: Glu148 (UniProt position 148, MVLGREGPTVQ)
Test: kinetics
Settings: membrane-reconstituted, turning over in Cl-/36Cl- exchange (Cl- present)

**Q.** With CLC-ec1 Y445L (Escherichia coli; Y445L) as the substance, how does the pKa read?
**A.** 4.7±0.1

**Q.** How did the pKa turn out when CLC-ec1 E203Q (Escherichia coli; E203Q) was run?
**A.** 6.2±0.5

**Q.** “CLC-ec1 (H+/Cl- exchange transporter ClcA), wild type (Escherichia coli)” was tested. Which pKa did it give?
**A.** 6.2±0.1
